Data: publication PMC7102971 (Nucleic Acids Research, 2020)

Target: the molecule itself
Experiment: crystal structure

B1: SFPQ-276-535 (dimerization domain of human SFPQ) (domain or fragment)
chain: EGFKANLSLLRRPGEKTYTQRCRLFVGNLPADITEDEFKRLFAKYGEPGEVFINKGKGFGFIKLESRALAEIAKAELDDTPMRGRQLRVRFATHAAALSVRNLSPYVSNELLEEAFSQFGPIERAVVIVDDRGRSTGKGIVEFASKPAARKAFERCSEGVFLLTTTPRPVIVEPLEQLDDEDGLPEKLAQKNPMYQKERETPPRFAQHGTFEYEYSQRWKSLDEMEKQQREQVEKNMKDAKDKLESEMEDAYHEHQANLL
  binding result: binds
